# Experimental data taken from the DeepSol protein solubility set.
# Experiment: soluble on expression in E. coli; label from the status in PepcDB or PDB records
row,Sequence,soluble on expression in E. coli
1,MSLSTLKREQIKKDLKDQEFDVVIIGGGITGAGIALDASERGMKVALVEMQDFAQGTSSRSTKLVHGGLRYLKQLQVGVVAETGRERAIVYENGPHVTTPERMLLPMHKGGSMGKFTTSIGLAMYDRLAGVKKAERKTMLNAKETLEKEPLVKKAGLKGGGSYVEYRTDDARLTIEVMKRAEEKGAKVINHTKSVHFTYDSNEKVNGIQVEDQISNETYPIKAKKVINASGPWVDEVRSGDYARNNKQLRLTKGVHIVIDQSKFPLGQAVYFDTEKDGRMIFAIPREGKAYVGTTDTFYDNNKTSPLANQEDRDYLIDAINYMFPDVNVADEDIESSWAGVRPLILEEGKDPSEISRKDEVWEGKSGLLTIAGGKLTGYRHMALEIVDLLSKRLKSEFGLKFDKCATKHLTISGGDVGGSANFDKFIEQKVEEAKSYQIDESTARHFASKYGSNAEELFKIAQTAQYQETGLPLDIYTELVYSIQNEMVYRPTDFFIRRTGKLYFKIDDVLNYKEQVIDVMAGLLGYTNIEKEAYTKELQIAIDEAQTGNHQPAVKELEHHHHHH,not soluble
2,CHAINAAGKKVLIVYAHQEPKSFNGSLKNVAVDELSRQGCTVTVSDLYAMNFEPRATDKDITGTLSNPEVFNYGVETHEAYKQRSLASDITDEQKKVREADLVIFQFPLYWFSVPAILKGWMDRVLCQGFAFDIPGFYDSGLLQGKLALLSVTTGGTAEMYTKTGVNGDSRYFLWPLQHGTLHFCGFKVLAPQISFAPEIASEEERKGMVAAWSQRLQTIWKEEPIPCTAHWHFGQ,soluble
3,MKLNNHNLKEIYSLSLNELKEELFKLGLKSFISKQIYSWIYQKRIFNFDKFSNIAKNNVIILKENFSNNLLKINSYQSNSDGSIKFEFLTDKNLIINCMIIKFKNGFLIKINPFGINFKKEIINLSTNELVLQILLIQQFLDQRKLGNITNVIIKGLQDSLLNMDVVSNFINIINNENGLNIGKRKIAVWTSGINVDLIKWGQLQNQIELIISMNASNSLIYQKIMLKKLNQNWSFLKLIEQIKAYTKITNNRVVLEYLLIDKINDDLNYANELVELLKNILCYVLLIPYNLNNYRTSANLDDFFNILSVNKIRISKRIRKSNDLDISFKQLKIKELEHHHHHH,not soluble
4,MRGSHHHHHHGSAHGLTDDMTMHFRMEGCVDGHKFVIEGNGNGNPFKGKQFINLCVIEGGPLPFSEDILSAAFDYGNRLFTEYPEGIVDYFKNSCPAGYTWHRSFRFEDGAVCICSADITVNVRENCIYHESTFYGVNFPADGPVMKKMTTNWEPSCEKIIPINSQKILKGDVSMYLLLKDGGRYRCQFDTIYKAKTEPKEMPDWHFIQHKLNREDRSDAKNQKWQLIEHAIASRSALP,soluble
5,KGTLYLVATPIGNLEDVTFRAIRTLKEADQIAAEDTRQTKKLLNHFDIATKLVSYHEHNKETMGKRLIDDLIEGRTIALVSDAGMPAISDPGYELVVSAIKEGIAVIPIPGA,not soluble
6,MASGIRCFRLLHPAFRSYHAALTRPVSEVSMKTVSGRQHGHRQYSAYPAVPVRHFATKKAKAKGKGQPQARVTVNRALVEDIISLEEVDEDMKSVVEALKDNFNKTLNIRTAPGSLDHITVVTADGKVALNQIGQISMKSPQVILVNMASFPECTAAAIKAIRESGMNLNPEVEGTLIRVPIPKVTREHREMLVKLAKQNTNKAKENLRKVRTNAMNKLKKSKDKTSEDTIRLIEKQISQMADDTVAELDQHLAAKTKELLG,soluble
7,SSMLPSFGFTQEQVACVCEVLQQGGNLERLGRFLWSLPACDHLHKNESVLKAKAVVAFHRGNFRELYKILESHQFSPHNHPKLQQLWLKAHYVEAEKLCGRPLGAVGKYRVRRKFPLPRTIWDGEETSYCFKEKSRGVLREWYAHNPYPSPREKRELAEATGLTTTQVSNWFKNRRQRDRAAEAKERENTENNNSSSNKQNQLSPLEGGKPLMSSSEEEFSPPQSPDQNSVLLLQGNMGHARSSNYSLPGLTASQPSHGLQTHQHQLQDSLLGPLTSSLVDLGS,soluble
8,MGSDKIHHHHHHDAVRTYYAKAISANEKTNSVCMFVKEAEKWAMDWDEKAKDPQFQKPPLFGLPMSLKECVPLEGYDQTRGFVQDTFRPTETDGVLVQQLKKLGAIPYVQTNVPQSLLSYNCSNPVYGTTNHPMDKTRTSGGSSGGESALISADGSLLGIGGDVGGSIRIPCAYTGTTGIKPSHLRFSHRGVCGSVPGRPLINSNDGPMSTRVETNVDFLRTVWADTWITEQDPYVPPVTWNEEAYKSDKKLKIGYYVDDGWFTPTPVCQRAVMEAKQILEDSGHTLVPFRPPRVPEVLRMFLRAVCVDAGTFLSKKLMNDIIDPLLYTQVVLWMVPVPIQRFLSSIIKVFFPRLGNLMDAMTLSTVELRNTYADIEAYRSEMAGLMVDQKIDALLCPVTVSPALPHVSPSKLFAGTSYTGIFNLLDYAAGSVNVTHVTKQDELDLEDYEESDPWYALAKKGSRGTIGFPIGVQVATPPYKEETCLRIMREIERGVTGK,not soluble
9,SLDSPADNPVDSTASDRPVEGRDRDDEGRARNARPRDGLGRPLPYGANGVPRQPEGVVRAPEATVAEAQRLLDDGKPFHAHEVFEDAWKAGPEEERELWRGMAQLAVGLTHSARGNATGGARLLRRGAGAVTAWAASEAGRERPYGMDLGAVAGWARELAGEVEGGGSVDAAARAPRLRG,not soluble
10,MGSDKIHHHHHHMKVQRIQAIENLIHEKGSASLDDLCKQFNVSKNTIRRDIAKLLQKNTIKKVYGGVVSIYNNPEEIRPFENRDTENHAEKQLIGKAAADFIEENDLIFIDSGTTTSCLAAALPTDKEITIITNSLDVINFASEMDNVKLIVIGSTFKTSTKSFVGVENWGFFEKYNITKAFMAATALSTTHGVMNSDILEYEIKRHMMEKAREKFLLVDHTKVDKSALLTYGELAEFDWLVTSKEMAGGCLGYCADVGVLVRLV,not soluble
11,MSWREKLGMIHIYTGNGKGKTTAALGLALRMLGSGGKVIIIQFMKAPKVYGEYFMAEKCNFKIESYGLPKFVHGKPDEEDIKAAKRALERAREVVKSGEWDLVILDEICVALGFGMLNIEEVKELIQEKAKNTELVLTGRYCPKELYELADYVTEMREIKHPYQRGILARRGVEY,soluble
12,MINSKVKPQAVVADAHEDTIRSLYMESLHLVERLHRRLLDVIKDEFDRQGRDDVNAVQALLLFNIGNSELTAGELRSRGYYLGSNVSYNVKKLVDLGLINHQRSRVDRRSVRISLTEEGQAIAETVARLYERHVGSIEKVGGIGTGEFSEMNKLLQRLDRFWNDSIAYRL,not soluble
13,HMIFAKGHGTQNDFVLLPDVDAELVLTAARVAALCDRRKGLGADGVLRVTTAGAAQAVGVLDSLPEGVRVTDWYMDYRNADGSAAQMCGNGVRVFAHYLRASGLEVRDEFVVGSLAGPRPVTCHHVEAAYADVSVDMGKANRLGAGEAVVGGRRFHGLAVDVGNPHLACVDSQLTVDGLAALDVGAPVSFDGAQFPDGVNVEVLTAPVDGAVWMRVHERGVGETRSCGTGTVAAAVAALAAVGSPTGTLTVHVPGGEVVVTVTDATSFLRGPSVLVARGDLADDWWNAMG,soluble
14,MGKGGNYVTVAASEVDELRRKNGEMEKAVEEMKKEMLQLWRRTQVAEEAEERLCSQLAELEAESLDQARDYHSRIIFLMNELSRLSSDSASASP,soluble
15,MHHLILGYGYCGYYLAQELLGHHQQVTVVSRQLKKELELSKLQHISHDLEYPFHWSEPDSIIYYLIPPPSQGTCDTFLQQFLNQSSLNAKKIIYFGSSGVYGNHQGAWVDELSACIIDSPRQQRRLDAEQQWLAYCQQHNKELSLLRIAGIYGPNRIPADAAKSKIPIIKPTEAPFTNHIFVKDLALIAYLLGQKQTTSAVYNVADGNPTHMGELQQTVANALGIESASYESFEQAWEKASPMKREFMRASKRLKIDLLKTALGEDIQFTSLYDAVKQSL,not soluble
16,MGCLLFLLLWALLQAWGSAEVPQRLFPLRCLQISSFANSSWTRTDGLAWLGELQTHSWSNDSDTVRSLKPWSQGTFSDQQWETLQHIFRVYRSSFTRDVKEFAKMLRLSYPLELQVSAGCEVHPGNASNNFFHVAFQGKDILSFQGTSWEPTQEAPLWVNLAIQVLNQDKWTRETVQWLLNGTCPQFVSGLLESGKSELKKQVKPKAWLSRGPSPGPGRLLLVCHVSGFYPKPVWVKWMRGEQEQQGTQPGDILPNADETWYLRATLDVVAGEAAGLSCRVKHSSLEGQDIVL,soluble
17,MGSDKIHHHHHHMNRVILFHFHFFKNAGSAVDYILEKNFGDRFVKKEFKLWPYYENIKEVIKWIENESDAVAFSSHTARLFDSTLLERRGIKIIPIIFVRHPIIRIHSAYHYERKQVDIFRPGPVIARNTDFKGYVEIRLAIPRQEFNVSNFHVFRLADMLHGEKNMKPLEKALIALKRLPFIGLVEEFEKSMTKLEETVREYFPEFKASVIRTNVQFSPDMPLEERLKIIKNEVGKDFYKKLMEINEEDMVLWEKVVDMYKEGF,not soluble
18,SPDEQLLKQVSELLQQGEHAQALNVIQTLSDELQSRGDVKLAKADCLLETKQFELAQELLATIPLEYQDNSYKSLIAKLELHQQAAESPELKRLEQELAANPDNFELACELAVQYNQVGRDEEALELLWNILKVNLGAQDGEVKKTFMDILSALGQGNAIASKYRRQLYSILY,soluble
19,MGSDKIHHHHHHMWHLFLECAFKIFLFEHSFKYFLNNFSKLGRLIIPSLKKTQIMRNAEFDRKAVLCAAMSVFTAKGYAKTSMQDLTKATGLHPGSIYCAFENKKGLLIAAIGQYQDERHQQFVRLFDNDAPCLSNLSNYLTEIVDECLSQDMSKACLLTKTLNEVGSQDEEIKTLITANLTAWQAALTAVFSLAQKNNEIDSQANSQELAQYLMMGIYGLRTFAHTHKDGQQLAQLAKKLLADVSR,not soluble
20,MKTNVIIDGDACPVVNSVIELTKGTGIFVTILRSFSHFSQQIQPEHVKIVYVDDGPDAVDYKIVELASNNDIVITQDYGLASLLIDKVHTVMHHKGNIYHSNNIQSLLDQRYLNAQIRRRGGRHKGPPPFTTEDRLKFEHAFRKIINQILEHHHHHH,soluble
21,MEVEVEKDCRTECSREREIEKERSKDEFHGLIEIDGECMQSGNRKWKRIDSAVKVAKKEKKKKMKDEEKKKEDEDNLQHTIQQSE,soluble
22,MAASLWMGDLEPYMDENFISRAFATMGETVMSVKIIRNRLTGIPAGYCFVEFADLATAEKCLHKINGKPLPGATPAKRFKLNYATY,soluble
23,MGSDKIHHHHHHMIHKLEMFIAVAREAHFGRAAESLGLTQPTLSTGIKQLEEMLGVQLIFRGSRYGGLTPEGQRALVWARQLVSDARTFRQEMRTARHGLSGIVRLAVIPTALTWAAHLSARFSAAHPNVRFSILSRTSAEILSMLENLEADAGLSYLDNEPLGRVTTEPLYRERHTVVAHRDSDIAMQDKVEWADLAGERLCLLTPNMQNRRIINEYFMAAGIAPEAQVESNSTVVLAAHVEAGDWITILPVDMARFLCGGKPHLVIREIEGTGMDHAVGLVAPYREPHTPVLNALISETRALAKAHA,not soluble
24,MEYGNLRRQAASLKKSLFDQGYLDEQFCQVEDLQDEANPNFAEEVVSLFFKDSTRVMLNFEQAIEKHPKDFARWDTHMQQLKGSCSSIGASRVKNECTSFRNFCGEENAEGCTRSFQKVKREHAVLRQKWESYFQLLRQAGPAGTATRPAGK,not soluble
